# Laboratory results from patent US20210009693A1 (MABSPACE BIOSCIENCES SUZHOU, published 2021).
# B1: 23F11-H4L4 (antibody, V domains shown)
# VH: QVQLVQSGAEVKKPGASVKLSCKASGYIFTTYWMHWVKQRPGQGLEWIGMIQPNSGGTKYNEKFKKKATLTVDKSISTAYMELSRLTSDDTAVYYCARGAGTVDYFDYWGQGSTLTVSS
# VL: DIVLTQSPASLAVSVGQRATITCRASESVDIYGNSFMHWYQQKPGQPPKLLIYRASNLESGIPARFSGSGSRTDFTLTINPVEANDTATYYCQQSTEDPYTFGGGTKLEIK
# notes: Human IgG1 constant region with N297A; biotinylated in the alanine-scan ELISA; also called 23F11-H4L4-bio; humanized 23F11
# B2: 21F11 (antibody, V domains shown)
# VH: QVQLQQPGAELVKPGASVKLSCKASGYTFTSNWMHWVKQRPGQGLEWIGMMHPNSGSINYNEKFKNKATLTADKSSSTAYMQLSSLTSEDSAVYYCARSYYGSSPYYFDYWGQGTTLTVSS
# VL: DIQMTQTTSSLSASLGDRVTISCRASQDISNYLNWYQQKPDGTVKLLIYYTSRLHSGVPSRFSGSGSGTDFSLTISNLEEEDIATYFCQQGDTLPWTFGGGTKLEIK
# notes: Mouse monoclonal from hybridoma; also called mouse monoclonal antibody 21F11
# Columns and labels:
# [1] = molecular target: T1, Recombinant Human PD-L1/CD274 Protein (hPD-L1-his) (human, UniProt Q9NZQ7 19-238); experiment: ELISA on coated hPD-L1-his; bound at pH7.4, then 2 h at pH5.5
# T1 construct: range 19-238; ACRO Biosystem PD1-H5229, made in HEK293; also called human PD-L1-his; hPD-L-his
# Description: The pH-dependent binding affinity was further measured at various pH values, such as pH4, pH4.5, pH5.0, pH5.5, pH6.0, pH7.4. The measurement by ELISA was conducted similarly to the method described above. High-binding clear polystyrene 96 well plates were coated with 100 μl/well of a 0.5 μg/ml hPD-L1-his in high pH coating buffer and incubated overnight at 4° C. Then the coated plates were washed 3 times with shaking for 10s on an automatic plate washer with PBS+0.1% Tween 20 (Amresco). Then 200 μl of blocking buffer (1% BSA (Solarbio)+1% normal goat serum (Solarbio)+0.05% Tween 20 (Amresco)) was added to each well and the plates were then incubated for 2 hours at room temperature and washed 3 times as above. […] The plates were then washed once with 250 μl/well washing buffer at pH7.4, pH6.0, pH5.5, pH5.0, pH4.5 or pH4.0 and then 100 μl/well pH7.4 or pH5.5 washing buffer was added and the incubation was continued for 2 hours at RT with shaking. Afterwards, the plates was washed 3 times washing buffer at pH7.4 and 100 μl/well of a solution of HRP conjugated goat anti-hIgG HRP antibody (1:20000, Abcam) in pH7.4 dilution buffer was then added to each well of the plate. After that the plates were allowed to incubate for 60 min at room temperature followed by washing 3 times with 250 μl/well pH7.4 washing buffer. […] The plates were read on a Thermo Multiscan FC at 450 nm (see FIG. 23A-23F). […]
# [2] = molecular target: T1, Recombinant Human PD-L1/CD274 Protein …; experiment: ELISA, coated hPD-L1-his, acidic wash and incubation after binding at pH7.4
# Description: (§1) The pH-dependent binding affinity was further measured at various pH values, such as pH4, pH4.5, pH5.0, pH5.5, pH6.0, pH7.4. The measurement by ELISA was conducted similarly to the method described above. High-binding clear polystyrene 96 well plates were coated with 100 μl/well of a 0.5 μg/ml hPD-L1-his in high pH coating buffer and incubated overnight at 4° C. Then the coated plates were washed 3 times with shaking for 10s on an automatic plate washer with PBS+0.1% Tween 20 (Amresco). Then 200 μl of blocking buffer (1% BSA (Solarbio)+1% normal goat serum (Solarbio)+0.05% Tween 20 (Amresco)) was added to each well and the plates were then incubated for 2 hours at room temperature and washed 3 times as above. […] The plates were then washed once with 250 μl/well washing buffer at pH7.4, pH6.0, pH5.5, pH5.0, pH4.5 or pH4.0 and then 100 μl/well pH7.4 or pH5.5 washing buffer was added and the incubation was continued for 2 hours at RT with shaking. Afterwards, the plates was washed 3 times washing buffer at pH7.4 and 100 μl/well of a solution of HRP conjugated goat anti-hIgG HRP antibody (1:20000, Abcam) in pH7.4 dilution buffer was then added to each well of the plate. After that the plates were allowed to incubate for 60 min at room temperature followed by washing 3 times with 250 μl/well pH7.4 washing buffer. Finally, 100 μl/well of TMB was added to each well for 15 min and the reaction was terminated using 50 μl/well of 0.16M/L sulfuric acid. The plates were read on a Thermo Multiscan FC at 450 nm (see FIG. 23A-23F). The measurements were performed in triplicate.
# [3] = molecular target: T2, human PD-L1 expressed on cells (human, UniProt Q9NZQ7 19-290); experiment: flow cytometry (relative mean fluorescence) on human peripheral blood cells activated 3 days with anti-CD3 and anti-CD28; detection with anti-human IgG-APC
# T2 construct: whole, on cells; also called hPD-L1 expressed on HCC827; hPD-L1 on MC38/hPD-L1 cells
# [4] = molecular target: T2, human PD-L1 expressed on cells; experiment: blocking FACS on HCC827 cells; blocked ligand: biotinylated hPD-1-N297A
# Description: Log phase IFN-γ stimulated (500U/ml for 2 days) HCC827 cells were collected and resuspended in blocking buffer (5% BSA+PBS). 2×10\hat{ }5 cells were added to each tube and then washed once with PBS (1500 rpm, 5 mins, RT). […] After washing for three times with PBS, 100 μl/tube streptavidin-PE 1:200 in blocking buffer was added to each tube. The cells were incubated at 4° C. for 1 hr and then washed twice with PBS, followed by resuspending cells in 150 μl PBS for each sample. The cells were then transferred into FACS tube and the binding of the antibodies to the cells were detected with flow cytometry (ACEA Bioscience Novocyte) (see FIGS. 20A and 20B).
# [5] = molecular target: hPD-L1 (antigen of the Biacore assay) (human, UniProt Q9NZQ7 19-238, limits assumed); experiment: SPR (Biacore), antibody captured on anti-human Fc, antigen in flow
# Procedure, shortened: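 Antibody captured to 200–300 RU on an anti-human Fc CM5 surface, with an uncaptured flow cell as reference; antigen injected at varying concentrations, 180 s association, in HBS-EP pH 7.4. Regeneration with glycine pH 1.5 for 120 s; reference-subtracted signals evaluated.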
# [6] = molecular target: T3, human PD-L1-Fc mutant E58A (human); experiment: ELISA on captured PD-L1-Fc, as in Example 18A
# T3 construct: Position 58 counts on native human PD-L1 (NP_054862.1); also called E58A mutant
# [7] = molecular target: T4, wild type human PD-L1-Fc protein (SEQ ID NO: 107) (human); experiment: ELISA on captured PD-L1-Fc, as in Example 18A
# T4 construct: Extracellular human PD-L1 (amino acid 19-238) with Fc fragment of human IgG1, expressed in 293T cells and used as culture supernatant; also called WT PD-L1; wild-type PD-L1
# [8] = molecular target: T1, Recombinant Human PD-L1/CD274 Protein …; experiment: ELISA on coated hPD-L1-his; bound at pH7.4, then 2 h at pH7.4
# Description: as §1
# [9] = molecular target: T1, Recombinant Human PD-L1/CD274 Protein …; experiment: ELISA on coated hPD-L1-his
# [10] = molecular target: T5, Human PD-L1/CD274 with C-Fc Tag (hPD-L1-Fc) (human, UniProt Q9NZQ7 19-238); experiment: blocking ELISA on coated hPD-L1-Fc; blocked ligand: biotinylated hPD-1-N297A
# T5 construct: range 19-238; ACRO Biosystem PD1-H5258, made in HEK293; also called human PD-L1-Fc; not shown: Fc fragment of human IgG1 at C-terminus
# [11] = molecular target: T6, Recombinant Mouse PD-L1/CD274 Protein (mPD-L1-his) (mouse, UniProt Q9EP73 19-238); experiment: ELISA, 20 ug/ml antibody on coated mouse PD-L1 (his-tagged per text, mPD-L1-Fc per sheet title)
# T6 construct: range 19-238; ACRO Biosystem PD1-M5220; also called mouse PD-L1-his
# Procedure, shortened: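 Wells coated overnight at 4 °C with 1 μg/ml mouse PD-L1-his, blocked 2 h with BSA/goat serum buffer; purified hybridoma mouse antibodies at 20 μg/ml bound 1 h at RT. Detection by HRP goat anti-mouse Fc (60 min, RT), TMB, acid stop, absorbance at 450 nm.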
# [12] = molecular target: T4, wild type human PD-L1-Fc protein (SEQ …); experiment: ELISA on hPD-L1-Fc captured from 293T supernatant, 0.5 ug/ml antibody
# [13] = molecular target: T5, Human PD-L1/CD274 with C-Fc Tag …; experiment: blocking ELISA on coated hPD-L1-Fc; blocked ligand: biotinylated hPD-1-Fc-N297A
# Description: High-binding clear polystyrene 96 well plates (Nunc) were coated with 100 μl/well of coating solution consisting of 0.5 μg/ml hPD-L1-Fc overnight at 4° C. Then washed once on an automatic plate washer using washing buffer PBS+0.1% Tween 20 (Sigma). 200 μl of blocking buffer (PBS+1% BSA+1% normal goat serum+0.05% Tween-20) was added to each well and incubated for 2 hours at room temperature. Then add serial diluted antibodies (from 10 μg/ml to 0.0006 μg/ml) with dilution buffer (PBS+1% BSA+1% normal goat serum+0.01% Tween-20) and incubate for 1 hour at RT. The plates were then washed 3 times using the method described above. […] After the plates were washed 3 times, 100 μl/well of a solution of HRP conjugated Neutravidin antibody (Pierce) diluted in dilution buffer was then added to each well of the plate. After that the ELISA plates were allowed to incubate for 60 min at RT then plates were washed 3 times with 250 μl/well washing buffer. Finally, 100 μl/well of TMB was added to each well and reaction was terminated using 0.64M H₂SO₄. The plates were read on a Thermo Multiscan FC at 450 nM (see FIG. 4A).
# hPD-L1 (antigen of the Biacore assay), sequence (Q9NZQ7 19-238 limits assumed): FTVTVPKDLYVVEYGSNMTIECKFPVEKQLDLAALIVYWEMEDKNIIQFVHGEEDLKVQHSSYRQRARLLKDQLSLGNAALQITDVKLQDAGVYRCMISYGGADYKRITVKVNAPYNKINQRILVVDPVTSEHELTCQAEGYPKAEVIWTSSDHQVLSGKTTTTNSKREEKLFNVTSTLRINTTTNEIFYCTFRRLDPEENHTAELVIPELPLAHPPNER
# T1 sequence (Q9NZQ7 other isoform, or with tags, fused parts or gaps limits assumed): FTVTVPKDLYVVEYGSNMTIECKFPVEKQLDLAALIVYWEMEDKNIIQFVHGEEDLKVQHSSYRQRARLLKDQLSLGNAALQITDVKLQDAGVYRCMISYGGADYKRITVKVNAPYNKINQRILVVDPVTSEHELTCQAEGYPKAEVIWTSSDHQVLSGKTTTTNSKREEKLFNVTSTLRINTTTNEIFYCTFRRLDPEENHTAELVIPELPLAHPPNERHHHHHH
# T4 sequence (chain, as listed by the source limits assumed): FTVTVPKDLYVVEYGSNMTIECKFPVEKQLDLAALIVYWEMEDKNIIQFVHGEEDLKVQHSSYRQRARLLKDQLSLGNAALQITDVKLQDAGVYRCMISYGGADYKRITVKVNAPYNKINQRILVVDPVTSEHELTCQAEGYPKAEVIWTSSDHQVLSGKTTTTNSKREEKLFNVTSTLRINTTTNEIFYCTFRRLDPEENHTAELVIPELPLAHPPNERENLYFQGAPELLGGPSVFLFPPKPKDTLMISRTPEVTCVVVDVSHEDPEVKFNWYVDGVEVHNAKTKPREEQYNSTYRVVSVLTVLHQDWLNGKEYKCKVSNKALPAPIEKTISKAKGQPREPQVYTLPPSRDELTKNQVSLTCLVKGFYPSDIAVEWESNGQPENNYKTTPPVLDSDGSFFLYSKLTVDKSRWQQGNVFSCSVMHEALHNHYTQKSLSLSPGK
# T3 sequence (chain, as listed by the source E58A E58A limits assumed): as the sequence (chain, as listed by the source limits assumed) above, with E40A counted along it
# T5 sequence (Q9NZQ7 19-238 limits assumed): as the sequence (Q9NZQ7 19-238 limits assumed) above
# T2 sequence (Q9NZQ7 19-290): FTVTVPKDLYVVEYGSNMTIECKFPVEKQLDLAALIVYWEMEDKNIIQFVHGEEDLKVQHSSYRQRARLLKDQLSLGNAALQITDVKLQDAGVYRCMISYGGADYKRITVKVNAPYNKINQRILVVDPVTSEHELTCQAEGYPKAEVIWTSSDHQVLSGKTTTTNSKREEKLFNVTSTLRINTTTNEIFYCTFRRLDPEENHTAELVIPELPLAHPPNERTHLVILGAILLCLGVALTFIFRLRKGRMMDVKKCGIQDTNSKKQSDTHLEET
# T6 sequence (Q9EP73 other isoform, or with tags, fused parts or gaps limits assumed): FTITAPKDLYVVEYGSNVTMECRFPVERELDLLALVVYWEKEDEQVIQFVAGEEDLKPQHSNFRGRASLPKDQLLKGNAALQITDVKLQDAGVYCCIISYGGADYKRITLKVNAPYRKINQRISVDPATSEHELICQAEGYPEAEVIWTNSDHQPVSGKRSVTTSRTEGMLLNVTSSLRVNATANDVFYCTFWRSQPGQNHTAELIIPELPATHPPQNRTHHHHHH
binder,measurement,setting,value
B1,EC50 (read off the curve),[1],~0.01 µg/mL
same,binding signal at pH5 as percent of the signal at pH7.4,[2],< 50%
same,binding signal at pH5.5 as percent of the signal at pH7.4,[2],< 75%
same,EC50,[3],0.0305 µg/mL
same,IC50 (read off the curve),[4],~0.03 µg/mL
same,Kd,[5],65.4 nM
same,koff,[5],0.0304 s⁻¹
same,kon,[5],465000 M⁻¹ s⁻¹
same,% of binding of Ab to E58A mutant vs. that to WT PD-L1,[6],9.2%
same,Mean OD450,[6],0.116 OD450
same,OD450 nM of sample-1,[6],0.129 OD450
same,OD450 nM of sample-2,[6],0.103 OD450
same,Mean OD450,[7],1.25 OD450
same,OD450 nM of sample-1,[7],1.18 OD450
same,OD450 nM of sample-2,[7],1.33 OD450
same,EC50 (read off the curve),[8],~0.007 µg/mL
same,EC50 (read off the curve),[9],~0.001 µg/mL
same,IC50 (read off the curve),[10],~0.03 µg/mL
B2,binding result,[11],no binding (tested: 20 ug/ml)
same,binding result,[12],binds
same,IC50 (read off the curve),[13],~0.2 µg/mL
